According to the nanobody polyreactivity screen of Harvey et al. (2022):

Assay: yeast display, Sf9 membrane polyspecificity reagent, FACS + sequencing; frameworks hold sequencing errors
In short: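 Using colony PCR, genes from sorted yeast display clones were amplified, then sequenced on MiSeq at 2 × 250 and filtered by CDR length. The clones had been stained with 10% biotinylated, detergent-solubilized Sf9 membrane reagent for 1 hour at 4 °C and sorted by FACS into low and high (top ~1%) gates on anti-HA and streptavidin fluorescence. Polyreactivity labels come from the gate of origin.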

Sequence | polyreactivity (PSR sort gate)
QVQLVESGGVLVQSGGSLRLSCAASGRTFWWYAMGWYRQAPGKERALVAGISSGGSTYYADSVKGRFTISRDNAKYTVYLQMNSLKPEDTAVYYCAKTYWYPWRASLWHEYDYWGQGTQVTVSS | low polyreactivity
QVQLVESGLGLVQAGGSLRLSCAASGTTLLGYAMGWYRQAPGKERELVAAITGSGGRTSYADSVKGRFTISRDNAKNTVYLQMNSLKPEDTAVYYCAAARRYHFQRFNYWGQGTQVTVSS | high polyreactivity
QVQLVESGPGLVQAGGSLRLSSAASGLTFRWNGMGWYRQATGKERELVAAITGNAGSTYYADSVKGRFTISRDNAKNTVYLQMKSLNPEDTAVYYCAARLRYYYLVGYGYWGQGTQVTVSS | high polyreactivity
QVQLVESGRALVQAGGSLRVSCAASGRTFDTNAMGWYRQAPGKERELVAVITARGGNTSYADSVKGRFTLSRDNAKNSVYLQMNSLKPEDTAVYYCAARVYRAPWTYDEGNYWGQGTQVTVSS | low polyreactivity
QVQLVESGRCLVQAGGSLRLSCAASGITFDGNAMGWYRQEPGKERELVAGITRIGGGTYYADSVKGRFTISRDNAKNTVYLQMNSLKPEDTAVYYSAKDALVPNFTKDIFEYDYWGQVTQVTVSS | low polyreactivity
QVQLVESGRGIVQAGGSLRLSCAASGSTFAVNAMGWYRQAPGKERELVAAISTGGSTNYADSVKGRFTISRDNEKNTVFLQMNSLKPEDTAVYYCAAEHPVTYPTSKFDYWGQGTQVTVSS | low polyreactivity
QVQLVESGRGKVQAGGSLRLSCAASGFTFRGNAMGWYRQAPGKERELVAAITSSGGRTYYADSVKGRFTISRDNAKNTVYLQMNSLKPEDTAVYYCAARYAYPSRYYYWGQGTQVTVSS | high polyreactivity
QVQLVESGRGLFQAGGSLRLSCAASGSIFYSYAMGWYRQAPGKERELVAAISRSGGSTYYADSVKGRFTISRDNAKNTVYLQMNSLKPEDTAVYYCAAKNTGRYYWGLGTQVTVSS | high polyreactivity
QVQLVESGRGLVHAGGSIRLSCAASGRIFGLYAIGWYRQAPGKERELVASINSRGGSTNYAVSVKGRFTISRDNAMNTVYLQMNSLKPEDTAVYYCNARIVYAYQRYYWGQGTHVTVSS | high polyreactivity
QVQLVESGRGLVQAGASLRLSCAASGSTFAQYARGSYRQAPWKESELVAAITRTGITNYADSVKGRFTISRDNAKNNVYLQMNSLKPEDTAVYYCAARRWRNGYGTGYGYWGLGTQVTVSS | high polyreactivity
QVQLVESGRGLVQAGASLRLSCAASGSTFYVNAMGWYRQAPGKERELVAAITSTGTTHYADSVKGRFTISRDNAKNTVYLQMNSLKPEDTAVYYCAAYSRYQSRRYYYWGQGTQVTVSS | high polyreactivity
QVQLVESGRGLVQAGGILRLSCAASGFIFYYYAMVWYRQAPGKERELVAAISQRGGRTYYAESVKGSFTISRDYAKNTVYLQMNSLKTEDTAVYYCAARPAYRSSYYWGQGTQVTVSS | high polyreactivity
QVQLVESGRGLVQAGGSLRLSCAAAGSTFVSYDLGWSRQAPGKERELLADISWSGVSTDADSVKGRFTLSRDNAKNTVYLQMNSLKPEDPAVYYCAKDSDLYQRGGYYWGQGTQVTVSS | low polyreactivity
QVQLVESGRGLVQAGGSLRLSCAASGFTFKSYAKGWYRHATGKVRELVAAISRGTSTKYADSVKGRFTISRDNAKNTVYLQMNSLKPEDSAVYNCAALFPTSDLRLRYYRYDYWGQGTQVTVSS | low polyreactivity
QVQLVESGRGLVQAGGSLRLSCAASGIIFPFYAMGCYRQAPGKERELVAAITSGDDTYYADSVKGRFTISRDNAKNTVYLQMNSLKPEDTAVYYCNKRLYIAGYWPQLYYIMDYWGQGTQVTVSS | low polyreactivity
QVQLVESGRGLVQAGGSLRLSCAASGIIFRLNAMGWYRQAPGKERELVAAILRRGGSTYYADSVKGRFTISRDNAKNTVYFQMNSLKPEDTAVDYCAKDPHGSDFGYWGQGTQVTVSS | low polyreactivity
QVQLVESGRGLVQAGGSLRLSCAASGITCPVNVMGWYRQAPGKERELVAAISTSGGSTYYADSVKGRFTISRDNAKNTVYLQMNSLKPEDTAVYYCARQYIRSSYGYWGQGTQVTVSS | low polyreactivity
QVQLVESGRGLVQAGGSLRLSCAASGITFEYYAMGWYRQAPGKERELVAAIDTGGSTNYADSVKGRFTISRDNAKNTVYLQMNSLKPEDTAVYYCAADWSWWDGEDYHFEYDYWGQGTQVTVSS | low polyreactivity
QVQLVESGRGLVQAGGSLRLSCAASGITFNFYAKGWYRKAPGKERELVAAITQSGGSTYYADSVKGRFTISRDNAKNTVYLQMISLKPEDTAVYYWAAARTGHMYDLGQGTQVTVSS | high polyreactivity
QVQLVESGRGLVQAGGSLRLSCAASGITFTAYAMGWYRQAPGLERQLVATINSTGITNYADSLKGRFTISRDNAKNTVYLQMNSLKPEDTAVYYCAADLLYISSYDGMDYWGQGTQVTVSS | low polyreactivity
QVQLVESGRGLVQAGGSLRLSCAASGITYGNNAMGWYRQAPGKERELVATITSSGGSTYYADSVKGRFTISRDNAKNTVYSQMNSLKPEDTAVYYCAARQPGTRYPYDYWGQGTQVTVSS | high polyreactivity
QVQLVESGRGLVQAGGSLRLSCAASGLIFTANAMGWYRQAPGKERELVASITRDGGTNYADSVKVRFTISRDNAKNTVYLQMNSLKPEDTAVYYCAKESGSVLTLYDYWGQGTQVTVSS | low polyreactivity

Sequence | polyreactivity (PSR sort gate)
QVQLVESGRGLVQAGGSLRLSCAASGRIFSTYAMGWYRQAPGKERELVAAISWRGSSTYYADSVKGRFTISRDNAKNTVYLQMNSLKPEDPAVYYCNADKANRYDWGQGTQVTVSS | high polyreactivity
QVQLVESGRGLVQAGGSLRLSCAASGRIFYVYDMGWYRQAPGKESELVAAITQSGGRTYYADSVKGRFTISRDNAKNTVYLQRNSLKPEDTAVYYCAATWLGSRNLVHITLYYWGQGTQVTVSS | low polyreactivity
QVQLVESGRGLVQAGGSLRLSCAASGRIFYYNDMGWYRQAPGNERELFAAITWTDDGTYYADSVKGRFTISRDNAKNTVYLQMNSLKPVDTAVYYCAKDYNRTVEDWAKVNGFDFWGQVTQVTVSS | low polyreactivity
QVQLVESGRGLVQAGGSLRLSCAASGRTFPVYAMGWYRQAPGKERELVAAITYSGGSTSYADSVKGRFTISRDNAKNTVYLQMNSLKPEDTAVYYCAADRAYYSRGIGSVGYYYWGQGTQVTVSS | low polyreactivity
QVQLVESGRGLVQAGGSLRLSCAASGSIFAFYAMGWYRPAAGKERELVAVITRSGGSTYYADSVKGRFTISRDNAKITVYLQMNSLKPEDTAVFYCAARTGYGYTRYEYWGQGTQVTVSS | high polyreactivity
QVQLVESGRGLVQAGGSLRLSCAASGSIFGYYAMGWYRQAPGKERELVAAISRSGGSTYYADSVKGRFTISRDNAKNTVYLQMNSLKPEDTAVYYCAADDYPYGNYYWGQGTQVTVSS | high polyreactivity
QVQLVESGRGLVQAGGSLRLSCAASGSIFTHYAMVWYRQAPGKERELVATISNGDGSTYYADSVKGRFTISRDNAKNTVYLQMNSLKPEDTAVYYCNVDDFSQYADDSWGYEYWGQGTQVTVSS | low polyreactivity
QVQLVESGRGLVQAGGSLRLSCAASGSTCEGNAMGWYRQAPGKEELVAAISWSSDSTYNADSVKGRFTISRDNAKNTVYLQMNSLKPEDTAVYYCAAAIPGKYSNDYWGQGTQVTVSS | high polyreactivity
QVQLVESGRGLVQAGGSLRLSCAASGSTFAPYTMGWYRQAPGKERELVAAISWNGGRTSYADSVKGRFTISRDNAKNTVYLQMNSLKPEDTAVYYCATRRIWTQSYDGGLYGYYYWGQGTQVTVSS | high polyreactivity
QVQLVESGRGLVQAGGSLRLSCAASGSTFDGYAMGWYRQAPGKVRELVAAINWGGGSTRYADSVKGRFTISRDHAKNTVYLQMNSLKPEDTPVYYCAAYRYRVWYRGYDYWGQGTQVTVSS | high polyreactivity
QVQLVESGRGLVQAGGSLRLSCAASGSTFQVYTMGWYRQAPGKEREFVASISWSGSSTYYADSVKGRFTISRDNAKNTVYLQMNSLKPEDTAVYYCAARVGSTYRRYYYWGQGTQVTVSS | high polyreactivity
QVQLVESGRGLVQAGGSLRLSCAASGSTFRGNAMGWYRQATGKERELVAAITRSGGRTYYADSVKGRFTISRDNAKNTVYLQMNSLKPEDTAVYYCAVEYKYPGYDYWGPGTQVTVSS | high polyreactivity
QVQLVESGRGLVQAGGSLRLSCAASGSTFTEYAMGWYREAPGKERELFAAINRSGGGTYYADSVKGRFTISRDNAKNTVYLQINSLKPEDTADYYCAKDWYRRYIRDYWGQGTQVTVSS | high polyreactivity
QVQLVESGRGLVQAGGSLRLSCAASGYIFDRYAMGWSRQAPGKERELVAAISGRGGSTYYADSVKGRFTISRDNAKNTVYLQMNSLNPEDTAVYYCARDVYVRNGQRARYDSWGQGTQVTVSS | high polyreactivity
QVQLVESGRGLVQAGGSLRLSCAASGYTFSHYAMGWYRQAPGKEMELVAGNTWSGGSTYYADSVKGRFTISRDNAKNTVYLQMNSLKPEDTSVYYCAAKYYWYYSYSGIPLFDYWGQGTQVTVSS | low polyreactivity
QVQLVESGRGLVQAGGSLRLSCHASGFTFSPYTMGWSRQAPGKERELVATIRYDCTSTYYADSVKGRFTISRDNAKNTVYLQMNSLKPEDTAVYYCAADIWRVYSTFYYWGQGTEVTVSS | low polyreactivity
QVQLVESGRGLVQAGGSLSLSCAASGITFGNYAMGWYRQAPGKERELVAAITGSGGRTYYADSVKVRFTISRDNAKNTVYLQMNSLKPEDTAVYDCAAKQYTRFGYYYWGQGTQLTVSS | high polyreactivity
QVQLVESGRGLVQEGGSLRLSCAPSGSTFYRFAMGWYRQAPGKERELVAAISASGGSTYYADSVKGRFTISRDNAKYTVYLQMNSLKPEDTEVYYCNRDRRYRNDYWGQGTQVTVST | high polyreactivity
QVQLVESGRGLVQEGGSLRLSCASSGSTFKVYAMGWYRQAPGKERELVAAISQSGGSTYYADSVKGRFTISRDNAKNTVYIQMNSLKPEDTAVYYCAVRTYVYNWSFSSLPYDYWGQGTQVTVSS | high polyreactivity
QVQLVESGRRLVQAGGSLRLSCAASGINFDSYAMGWYRQAPGKERELVAAITSDSGRTYYADSVTGRFTISRDNAKNTVYLQMNSVKPEDTPVYYCAKRWDGPYDYWGQGTQVTVSS | low polyreactivity
QVQLVESGRRLVQAGGSLRLSCAASGSIFIPNVMGWYRQAPRKERELVASIRSNGGTNYADSVKGRFTISRDNAKNTVYLQMNSLKPEDTAVYNCAAKRWSYRHGFDYLGQGTQVTVSS | high polyreactivity
